Reference: patent publication US8163697B2, “Selective R-cadherin antagonists and methods” (The Scripps Research Institute, priority 2003, dated 2012)
Where a SMILES comes first, the peptide text is derived from it. Bridges are numbered along the chain shown (N, C = ends). Where no end group is shown, it is not given here.

Tests used:
R-cadherin = target: T1, R-cadherin (Mus musculus, UniProt P39038); experiment: Aggregation assay, R-cadherin transfected L-cells; type: cell-based; details: R-cadherin expressing L-cells
T1 construct: expressed in transfected cells
T1 sequence (P39038 167-913): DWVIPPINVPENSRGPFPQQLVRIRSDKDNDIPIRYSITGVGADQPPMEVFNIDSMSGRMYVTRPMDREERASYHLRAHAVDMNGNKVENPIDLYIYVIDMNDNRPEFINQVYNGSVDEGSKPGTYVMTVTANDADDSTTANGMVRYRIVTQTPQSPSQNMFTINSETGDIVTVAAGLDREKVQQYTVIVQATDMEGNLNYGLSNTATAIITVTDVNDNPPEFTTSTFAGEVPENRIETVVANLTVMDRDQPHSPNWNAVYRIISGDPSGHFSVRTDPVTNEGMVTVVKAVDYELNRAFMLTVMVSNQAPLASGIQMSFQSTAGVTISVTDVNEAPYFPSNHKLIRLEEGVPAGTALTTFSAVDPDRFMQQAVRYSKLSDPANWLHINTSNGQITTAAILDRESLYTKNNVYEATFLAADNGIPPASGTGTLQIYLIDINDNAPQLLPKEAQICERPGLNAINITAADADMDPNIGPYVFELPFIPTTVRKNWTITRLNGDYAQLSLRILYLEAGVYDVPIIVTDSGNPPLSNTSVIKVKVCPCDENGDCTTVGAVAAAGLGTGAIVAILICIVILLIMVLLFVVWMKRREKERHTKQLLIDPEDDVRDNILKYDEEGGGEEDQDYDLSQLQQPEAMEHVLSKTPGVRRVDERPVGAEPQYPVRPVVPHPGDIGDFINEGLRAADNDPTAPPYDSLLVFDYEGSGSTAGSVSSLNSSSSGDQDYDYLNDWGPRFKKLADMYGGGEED
Excerpt: (§1) Mouse R-cadherin and N-cadherin plasmids were generous gifts from Dr. Masatoshi Takeichi (Kyoto University, Japan). The plasmids were sub-cloned into pDsRed2 N1 vectors (Clontech) to encode for fusion proteins with Red Fluorescent Protein (RFP) attached to the C-terminal end of the cadherin molecules. L-cells (mouse fibroblast L929 cells, ATCC #CRL-2148) were stably transfected with either R or N-cadherin pDsRed2 N1 using the Calcium Phosphate Transfection System (Life Technologies) according to the manufacturer's protocol. After screening by growth in media supplemented with Geneticin (700 μg/mL G418 Geneticin, Gibco BRL), positive clones were selected. Cells were examined for expression of RFP, and were tested for cadherin expression by immunoblotting and immunofluorescence staining. FIG. 6 illustrates the aggregation of L-cells expressing R and N-cadherins.
L-Cells were grown to near confluency followed by trypsinization with 0.01% trypsin+5 mM CaCl2 and no EDTA (TC) or 0.01% trypsin with 0.1 mM EDTA and no calcium (TE). The cells were collected and washed, followed by resuspension in Hanks buffer solution (HBSS)+1% BSA with (TC) or without (TE) 5 mM CaCl2. Cells were incubated at 37° C. in 0.5 mL solution at 2×10^5 cells per well of a 24 well plate with rocking at about 60-70 rpm with varying peptide concentrations. All assays were performed in triplicate. The extent of cellular aggregation was represented by the ratio of the total particle number after 2 hours of incubation (N2hr) to the initial particle number (N0). Particles were counted on a hemocytometer using the sum of 8 separate 20 μL counts/well, before (N0) and after (Nt) incubation. […]
Mouse fibroblast cells (lineage L929), commonly referred to as L-cells, were chosen because they are known to contain no endogenous cadherin expression. […] Immunoblot analysis detected high levels of R-cadherin and no N-cadherin expression in R-cadherin clone 8 (R-cad8), while high levels of N-cadherin expression and no R-cadherin expression was found in N-cadherin clone 3 (N-cad3), as shown in FIG. 7. […]

N-cadherin = target: T2, N-cadherin (Mus musculus, UniProt P15116); experiment: Aggregation assay, N-cadherin transfected L-cells; type: cell-based; details: N-cadherin expressing L-cells; for IC50: 2 hours incubation, 5 mM CaCl2, read-out: IC50, inhibition of N-cadherin mediated aggregation
T2 construct: expressed in transfected cells
T2 sequence (P15116 160-906): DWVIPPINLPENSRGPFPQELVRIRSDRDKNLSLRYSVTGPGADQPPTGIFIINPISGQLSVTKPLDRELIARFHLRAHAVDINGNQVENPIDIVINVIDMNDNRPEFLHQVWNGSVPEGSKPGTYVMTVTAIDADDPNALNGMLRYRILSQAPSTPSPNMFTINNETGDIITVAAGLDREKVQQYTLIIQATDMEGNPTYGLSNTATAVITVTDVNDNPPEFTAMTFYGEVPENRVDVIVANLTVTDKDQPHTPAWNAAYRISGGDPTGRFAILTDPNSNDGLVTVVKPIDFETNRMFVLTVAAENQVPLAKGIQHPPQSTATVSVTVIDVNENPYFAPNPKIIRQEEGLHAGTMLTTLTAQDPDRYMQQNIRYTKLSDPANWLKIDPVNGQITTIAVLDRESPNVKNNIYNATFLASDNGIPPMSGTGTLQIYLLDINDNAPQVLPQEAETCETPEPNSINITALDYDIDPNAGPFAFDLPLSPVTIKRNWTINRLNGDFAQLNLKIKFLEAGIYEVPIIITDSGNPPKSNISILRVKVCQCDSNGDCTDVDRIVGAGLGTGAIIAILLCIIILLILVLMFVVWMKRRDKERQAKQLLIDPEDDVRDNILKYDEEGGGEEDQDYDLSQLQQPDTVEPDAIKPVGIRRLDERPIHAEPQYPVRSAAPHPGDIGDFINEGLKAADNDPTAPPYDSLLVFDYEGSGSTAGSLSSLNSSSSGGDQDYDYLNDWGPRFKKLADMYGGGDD
Excerpt: as §1
L-Cells were grown to near confluency followed by trypsinization with 0.01% trypsin+5 mM CaCl2 and no EDTA (TC) or 0.01% trypsin with 0.1 mM EDTA and no calcium (TE). The cells were collected and washed, followed by resuspension in Hanks buffer solution (HBSS)+1% BSA with (TC) or without (TE) 5 mM CaCl2. Cells were incubated at 37° C. in 0.5 mL solution at 2×10^5 cells per well of a 24 well plate with rocking at about 60-70 rpm with varying peptide concentrations. All assays were performed in triplicate. The extent of cellular aggregation was represented by the ratio of the total particle number after 2 hours of incubation (N2hr) to the initial particle number (N0). Particles were counted on a hemocytometer using the sum of 8 separate 20 μL counts/well, before (N0) and after (Nt) incubation. The results are illustrated in FIG. 8.
Mouse fibroblast cells (lineage L929), commonly referred to as L-cells, were chosen because they are known to contain no endogenous cadherin expression. R-cadherin stable transfectants were created and used to test the effects of the designed peptides on R-cadherin mediated aggregation. N-cadherin stable transfectants were also created and used to evaluate the peptides for cadherin selectivity, based on their effects on N-cadherin mediated aggregation. Immunoblot analysis detected high levels of R-cadherin and no N-cadherin expression in R-cadherin clone 8 (R-cad8), while high levels of N-cadherin expression and no R-cadherin expression was found in N-cadherin clone 3 (N-cad3), as shown in FIG. 7. Immunofluorescence confirmed the expression of the appropriate cadherin in these chosen clones. When tested in the aggregation assay, the morphology of the transfected cell lines was altered as a result of cadherin transfection. […]

Row | IC50 (R-cadherin; 2 hours incubation, 5 mM CaCl2, read-out: IC50, inhibition of R-cadherin mediated aggregation) | IC50 (N-cadherin) | effect on R-cadherin mediated aggregation (R-cadherin) | effect on N-cadherin mediated aggregation (N-cadherin) | Compound
1 | 150 to 200 µM | 150 to 200 µM |  |  | CC(=O)N[C@H]1CSSC[C@@H](C(N)=O)NC(=O)[C@H](C(C)C)NC(=O)[C@H](C)NC(=O)[C@H](Cc2c[nH]cn2)NC1=O [cyclic HAV, CHAVC]
2 |  | < 300 µM |  |  | CC[C@H](C)[C@@H]1NC(=O)[C@@H](NC(C)=O)CSSC[C@@H](C(N)=O)NC(=O)[C@@H]2CCCN2C(=O)[C@H](CC(N)=O)NC1=O [cyclic INP, cyclic CINPC] (Ac-CINPC-NH2; disulfide 1-5)
3 |  |  | little effect | little effect | cyclic CRADC (disulfide 1-5; also: peptides said to be amide-blocked at N-terminus and acetylated at C-terminus (as worded)) [cyclic RAD, control cyclic peptide CRADC]
4 |  |  | little effect | little effect | cyclic CSDIC (disulfide 1-5; also: peptides said to be amide-blocked at N-terminus and acetylated at C-terminus (as worded)) [cyclic SDI, control cyclic peptide CSDIC]
